Test results reported in article PMC11797056, “The ATPase activity of yeast chromosome axis protein Hop1 affects the frequency of meiotic crossovers” (Nucleic Acids Research, 2024).
One block for each molecule: values may come before it.

Columns and labels:
Hop1 = target: T1, Hop1 (Saccharomyces cerevisiae, UniProt P20050); assay: ITC (also ATP-agarose chromatography, UV crosslinking/filter binding, ATPase kinetics with Km […])
T1 construct: full-length His6-tagged WT Hop1
T1 sequence (P20050 1-605): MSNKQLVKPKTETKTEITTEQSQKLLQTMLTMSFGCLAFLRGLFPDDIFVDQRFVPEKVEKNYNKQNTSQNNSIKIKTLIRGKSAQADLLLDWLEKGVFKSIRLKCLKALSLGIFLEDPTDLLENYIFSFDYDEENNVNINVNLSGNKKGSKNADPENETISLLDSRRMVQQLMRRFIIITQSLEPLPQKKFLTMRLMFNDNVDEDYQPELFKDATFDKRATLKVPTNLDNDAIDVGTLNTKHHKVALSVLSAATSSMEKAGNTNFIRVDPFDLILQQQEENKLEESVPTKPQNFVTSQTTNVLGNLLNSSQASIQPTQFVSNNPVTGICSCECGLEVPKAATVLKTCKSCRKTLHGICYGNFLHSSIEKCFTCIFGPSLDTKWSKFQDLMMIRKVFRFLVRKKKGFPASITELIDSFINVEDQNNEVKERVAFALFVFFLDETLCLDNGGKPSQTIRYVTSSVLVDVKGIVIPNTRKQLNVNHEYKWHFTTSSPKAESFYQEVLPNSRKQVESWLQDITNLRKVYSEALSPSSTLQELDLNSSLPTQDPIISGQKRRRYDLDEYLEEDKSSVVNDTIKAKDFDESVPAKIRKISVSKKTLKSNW

Hop1 WT = target: T2, Hop1 WT (Saccharomyces cerevisiae, UniProt P20050 1-605); assay: MST; 25 nM HJ; EMSA: 25 mM HEPES pH 7.5, 0.5 nM 32P-HJ, 37 C 15 min, 8% PAGE in TBE (25 mM Tris base pH 8.0, 25 mM boric acid, 0.5 mM EDTA) at 4 C; MST: 25 nM 6-FAM HJ, buffer not in material; conditions: protein: recombinant; tags: N-terminal His6 (pET28a); label: 5'-6FAM on HJ02; four-way junction of 4 strands
T2 sequence: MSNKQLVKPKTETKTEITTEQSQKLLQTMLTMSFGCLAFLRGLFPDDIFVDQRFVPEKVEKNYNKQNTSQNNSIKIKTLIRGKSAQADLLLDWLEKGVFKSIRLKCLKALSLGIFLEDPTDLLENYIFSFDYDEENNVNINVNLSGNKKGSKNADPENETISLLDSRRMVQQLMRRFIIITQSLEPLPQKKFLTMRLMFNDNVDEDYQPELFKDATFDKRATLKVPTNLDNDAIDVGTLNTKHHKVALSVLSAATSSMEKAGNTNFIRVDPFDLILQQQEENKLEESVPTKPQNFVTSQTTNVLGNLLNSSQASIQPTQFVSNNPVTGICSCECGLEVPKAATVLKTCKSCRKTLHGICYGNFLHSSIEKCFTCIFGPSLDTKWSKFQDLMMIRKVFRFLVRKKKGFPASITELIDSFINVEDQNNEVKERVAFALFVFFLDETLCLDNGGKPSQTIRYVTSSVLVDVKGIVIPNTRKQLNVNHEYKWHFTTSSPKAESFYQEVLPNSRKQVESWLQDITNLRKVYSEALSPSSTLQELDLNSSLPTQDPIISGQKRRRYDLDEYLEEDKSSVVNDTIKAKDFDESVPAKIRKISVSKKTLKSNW

Hop1 HORMA domain = target: T3, Hop1 HORMA domain (S. cerevisiae, UniProt P20050 20-250, Red-tris-NTA label (in the MST only)); assay: MST; Red-tris-NTA labelled Hop1 HORMA domain fixed at 20 nM, Hop1-CTD titrated 0.00031 to 10 uM; incubated at 37°C for 15 min; Pico-RED, 5% excitation power; Hill model; apparent Kd; conditions: both partners purified
T3 construct: Hop1, S. cerevisiae, N-terminal HORMA domain; Amplified from pET28a-HOP1 and cloned NdeI/XhoI into pET14b; also called N-terminal HORMA domain; N-terminal region of Hop1; source: E. coli Rosetta (DE3), pET-14b, purified (Ni2+-NTA); not shown: His tag (inferred: Ni2+-NTA purification); Red-tris-NTA labelling; anti-His detection
T3 sequence (looked up): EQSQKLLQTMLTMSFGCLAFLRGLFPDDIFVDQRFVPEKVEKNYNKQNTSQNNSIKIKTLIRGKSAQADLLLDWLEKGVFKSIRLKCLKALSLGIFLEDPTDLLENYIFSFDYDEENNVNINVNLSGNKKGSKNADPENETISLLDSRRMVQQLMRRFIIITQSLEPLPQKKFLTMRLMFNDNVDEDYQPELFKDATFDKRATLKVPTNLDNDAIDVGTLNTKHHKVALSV

Molecule: Nc1ncnc2c1ncn2C1OC(COP(=O)(O)OP(=O)(O)OP(=O)(O)O)C(O)C1O (stereo not drawn) [ATP]
Kd (Hop1): ~32900 nM

B1: Holliday junction (HJ), 6-FAM (structured_DNA)
DNA 1: GACGCTGCCGAATTCTACCAGTGCCTTGCTAGGACATCTTTGCCCACCTGCCGGTTCACCC
DNA 2: TGGGTGAACCTGCAGGTGGGCAAAGATGTCCTAGCAATGTAATCGTCAAAGCTTTATGCCGTT
DNA 3: CAACGGCATAAAGCTTGACGATTACATTGCTAGGACATGCTGTCTAGAGGATCCGACTATCGA
DNA 4: ATCGATAGTCGGATCCTCTAGACAGCATGTCCTAGCAAGGCACTGGTAGAATTCGGCAGCGT
Kd (Hop1 WT): 206 nM

Kd (Hop1 HORMA domain): 1900 ± 500 nM
B2: Hop1-CTD (domain or fragment)
chain: LSAATSSMEKAGNTNFIRVDPFDLILQQQEENKLEESVPTKPQNFVTSQTTNVLGNLLNSSQASIQPTQFVSNNPVTGICSCECGLEVPKAATVLKTCKSCRKTLHGICYGNFLHSSIEKCFTCIFGPSLDTKWSKFQDLMMIRKVFRFLVRKKKGFPASITELIDSFINVEDQNNEVKERVAFALFVFFLDETLCLDNGGKPSQTIRYVTSSVLVDVKGIVIPNTRKQLNVNHEYKWHFTTSSPKAESFYQEVLPNSRKQVESWLQDITNLRKVYSEALSPSSTLQELDLNSSLPTQDPIISGQKRRRYDLDEYLEEDKSSVVNDTIKAKDFDESVPAKIRKISVSKKTLKSNW
